Source: patent publication US20210261648A1 (published 2021)
Numbering of substitutions follows the chain as printed. Numbers in names are those of the source.

T1: FcγRIIb (human, UniProt P31994 43-217)
T1 construct: extracellular domain; also called FcgRIIb; CD32B
T1 sequence (looked up): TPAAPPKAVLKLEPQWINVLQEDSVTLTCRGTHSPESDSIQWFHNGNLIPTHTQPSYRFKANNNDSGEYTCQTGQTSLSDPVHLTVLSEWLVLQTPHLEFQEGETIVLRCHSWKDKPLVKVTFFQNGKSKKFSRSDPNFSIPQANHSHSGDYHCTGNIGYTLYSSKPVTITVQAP

T2: FcγRIIa type H (human, UniProt P12318 34-217)
T2 construct: extracellular domain; also called FcγRIIaH; FcgRIIaH
T2 sequence (looked up): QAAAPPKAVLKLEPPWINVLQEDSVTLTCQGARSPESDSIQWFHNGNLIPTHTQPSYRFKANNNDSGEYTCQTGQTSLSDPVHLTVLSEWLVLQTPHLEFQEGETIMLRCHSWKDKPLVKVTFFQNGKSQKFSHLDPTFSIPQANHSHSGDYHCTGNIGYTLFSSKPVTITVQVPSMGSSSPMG

T3: FcγRIIa type R (human, UniProt P12318 34-217)
T3 chain: T2 sequence (looked up) with H134R

T4: FcγRIIb extracellular domain with C-terminal His tag (human, UniProt P31994 43-217)
T4 construct: extracellular domain; For crystals it was expressed with kifunensine and trimmed with Endo F1; also called FcgRIIb; FcγRIIb extracellular region
T4 sequence (looked up): T1 sequence (looked up)

B1: IL6R-BP499/IL6R-L (antibody, human IgG1, kappa)
heavy: QVQLQESGPGLVKPSETLSLTCAVSGHSISHDHAWSWVRQPPGEGLEWIGFISYSGITNYNPSLQGRVTISRDNSKNTLYLQMNSLRAEDTAVYYCARSLARTTAMDYWGEGTLVTVSSASTKGPSVFPLAPSSKSTSGGTAALGCLVKDYFPEPVTVSWNSGALTSGVHTFPAVLQSSGLYSLSSVVTVPSSSLGTQTYICNVNHKPSNTKVDKKVEPKSCDKTHTCPPCPAPDLLGDDSVFLFPPKPKDTLMISRTPEVTCVVIDVAEEDGEVKFNWYVDGVEVHNAKTKPREEQDNSTYRVVSVLTVLHQDWLNGKEYKCKVSNKALPRPIEKTISKAKGQPREPQVYTLPPSRDELTKNQVSLTCLVKGFYPSDIAVEWESNGQPENNYKTTPLVLDSDGSFFLYSKLTVDKSRWQQGNVFSCSVMHEALHNHYTQESLSLSP
light: not shown
notes: Alterations in EU numbering, introduced into IL6R-B3
B2: IL6R-BP487/IL6R-L (antibody, human IgG1, kappa)
heavy: B1 heavy with D298Y, L398M
light: not shown
notes: as for B1
B3: IL6R-BP502/IL6R-L (antibody, human IgG1, kappa)
heavy: B1 heavy with A329G, L398P
light: not shown
notes: as for B1
B4: IL6R-BP498/IL6R-L (antibody, human IgG1, kappa)
heavy: B1 heavy with D298Y
light: not shown
notes: as for B1
B5: IL6R-BP533/IL6R-L (antibody, human IgG1, kappa)
heavy: B1 heavy with A269G
light: not shown
notes: as for B1
B6: IL6R-BP489/IL6R-L (antibody, human IgG1, kappa)
heavy: B1 heavy with L398M
light: not shown
notes: as for B1
B7: IL6R-BP554/IL6R-L (antibody, human IgG1, kappa)
heavy: B1 heavy with D235E, E274D, D298Y, L398P
light: not shown
notes: as for B1
B8: IL6R-BP510/IL6R-L (antibody, human IgG1, kappa)
heavy: B1 heavy with D235E, E274P, D298Y, L398P
light: not shown
notes: as for B1
B9: IL6R-BP497/IL6R-L (antibody, human IgG1, kappa)
heavy: B1 heavy with D298Y, A329G, L398P
light: not shown
notes: as for B1
B10: IL6R-BP488/IL6R-L (antibody, human IgG1, kappa)
heavy: B1 heavy with L398P
light: not shown
notes: as for B1
B11: IL6R-BP511/IL6R-L (antibody, human IgG1, kappa)
heavy: B1 heavy with D235E, E274P, L398P
light: not shown
notes: as for B1
B12: IL6R-BP491/IL6R-L (antibody, human IgG1, kappa)
heavy: B1 heavy with D235E, L398P
light: not shown
notes: as for B1
B13: IL6R-BP503/IL6R-L (antibody, human IgG1, kappa)
heavy: B1 heavy with A329G, L398M
light: not shown
notes: as for B1
B14: IL6R-BP496/IL6R-L (antibody, human IgG1, kappa)
heavy: B1 heavy with R332A, L398P
light: not shown
notes: as for B1
B15: IL6R-BP536/IL6R-L (antibody, human IgG1, kappa)
heavy: B1 heavy with A269S, A329G, L398M
light: not shown
notes: as for B1
B16: IL6R-BP558/IL6R-L (antibody, human IgG1, kappa)
heavy: B1 heavy with D235E, A269G, E274D, D298Y, L398P
light: not shown
notes: as for B1
B17: IL6R-BP438/IL6R-L (antibody, human IgG1, kappa)
heavy: B1 heavy with I266V, D298Y, I334T, L398P
light: not shown
notes: as for B1
B18: IL6R-BP567/IL6R-L (antibody, human IgG1, kappa)
heavy: B1 heavy with D239G, R332A, L398P
light: not shown
B19: IL6R-AP002/IL6R-BP256/IL6R-L (antibody, human IgG1, kappa)
heavy 1: B1 heavy with I266V, A269S, E270D, D298Y, D358K, L398P, H437R, E441K
heavy 2: B1 heavy with S241D, I266V, A269S, E270D, D298Y, L398P
light: not shown
notes: Heterodimer: S239D in one chain only
B20: IL6R-AP009/IL6R-BP259/IL6R-L (antibody, human IgG1, kappa)
heavy 1: B1 heavy with I266V, A269S, E270D, D358K, L398P, H437R, E441K
heavy 2: B1 heavy with S241D, I266V, A269S, E270D, L398P
light: not shown
notes: as for B19
B21: IL6R-AP002/IL6R-BP257/IL6R-L (antibody, human IgG1, kappa)
heavy 1: B1 heavy with I266V, A269S, E270D, D298Y, D358K, L398P, H437R, E441K
heavy 2: B1 heavy with S241E, I266V, A269S, E270D, D298Y, L398P
light: not shown
notes: Heterodimer: S239E in one chain only
B22: IL6R-AP009/IL6R-BP260/IL6R-L (antibody, human IgG1, kappa)
heavy 1: B1 heavy with I266V, A269S, E270D, D358K, L398P, H437R, E441K
heavy 2: B1 heavy with S241E, I266V, A269S, E270D, L398P
light: not shown
notes: as for B21

molecular target: T5, FcγRIa (human, UniProt P12314 16-292); assay: SPR (Biacore), captured antibody, soluble FcγR
T5 construct: Whole entry named; also called FcgRIa; CD64A
T5 sequence (P12314 16-292): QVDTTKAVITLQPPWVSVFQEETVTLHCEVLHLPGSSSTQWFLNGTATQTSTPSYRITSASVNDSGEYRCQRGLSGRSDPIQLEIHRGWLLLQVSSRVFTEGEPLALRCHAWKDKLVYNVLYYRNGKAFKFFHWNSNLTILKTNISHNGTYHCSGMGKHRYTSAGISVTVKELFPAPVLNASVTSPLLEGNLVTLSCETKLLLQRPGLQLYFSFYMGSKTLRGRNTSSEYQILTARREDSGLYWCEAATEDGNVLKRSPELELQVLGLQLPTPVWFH

| Binder | Kd |
| --- | --- |
| B1 | 0.0012 µM |
| B2 | 0.0012 µM |
| B3 | 0.0021 µM |
| B4 | 0.0013 µM |
| B5 | 0.0077 µM |
| B6 | 0.0013 µM |
| B7 | 0.008 µM |
| B8 | 0.006 µM |
| B9 | 0.0021 µM |
| B10 | 0.0022 µM |
| B11 | 0.006 µM |
| B12 | 0.0053 µM |
| B13 | 0.0012 µM |
| B14 | 0.0012 µM |
| B15 | 0.0089 µM |

molecular target: T1, FcγRIIb; assay: SPR (Biacore), captured antibody, soluble FcγR

| Binder | Kd |
| --- | --- |
| B1 | 0.0015 µM |
| B2 | 0.0012 µM |
| B3 | 0.0037 µM |
| B4 | 0.0017 µM |
| B5 | 0.0041 µM |
| B16 | 0.009 µM |
| B6 | 0.001 µM |
| B8 | 0.0038 µM |
| B9 | 0.0041 µM |
| B10 | 0.0019 µM |
| B11 | 0.0035 µM |
| B12 | 0.003 µM |
| B13 | 0.0017 µM |
| B14 | 0.018 µM |
| B15 | 0.003 µM |

molecular target: T2, FcγRIIa type H; assay: SPR (Biacore), captured antibody, soluble FcγR

| Binder | Kd |
| --- | --- |
| B1 | 1 µM |
| B2 | 0.84 µM |
| B3 | 1.3 µM |
| B4 | 0.93 µM |
| B17 | 1.6 µM |
| B5 | 2.6 µM |
| B16 | 4.9 µM |
| B6 | 0.87 µM |
| B7 | 2.3 µM |
| B8 | 4 µM |
| B9 | 0.96 µM |
| B10 | 1.6 µM |
| B11 | 4.3 µM |
| B12 | 2.2 µM |
| B13 | 0.86 µM |
| B14 | 3.7 µM |
| B15 | 1.3 µM |

Molecular target: T3, FcγRIIa type R
Assay: SPR (Biacore), captured antibody, soluble FcγR

| Binder | Kd |
| --- | --- |
| B1 | 0.049 µM |
| B2 | 0.039 µM |
| B3 | 0.11 µM |
| B4 | 0.051 µM |
| B17 | 0.18 µM |
| B5 | 0.12 µM |
| B16 | 0.33 µM |
| B6 | 0.043 µM |
| B7 | 0.15 µM |
| B8 | 0.17 µM |
| B9 | 0.085 µM |
| B10 | 0.074 µM |
| B11 | 0.18 µM |
| B12 | 0.12 µM |
| B13 | 0.057 µM |
| B14 | 0.47 µM |
| B15 | 0.079 µM |

molecular target: T1, FcγRIIb; assay: SPR (Biacore); parent = IL6R-B3/IL6R-L

| Binder | KD(IIb) of the parent polypeptide/KD(IIb) of the altered polypeptide |
| --- | --- |
| B1 | 2120 fold |
| B2 | 2700 fold |
| B3 | 840 fold |
| B4 | 1880 fold |
| B5 | 756 fold |
| B6 | 3100 fold |
| B8 | 807 fold |
| B9 | 764 fold |
| B10 | 1680 fold |
| B11 | 891 fold |
| B12 | 1020 fold |
| B13 | 1810 fold |
| B14 | 168 fold |
| B15 | 1040 fold |

Molecular target: T3, FcγRIIa type R
Assay: SPR (Biacore); parent = IL6R-B3/IL6R-L

| Binder | KD(IIaR) of the parent polypeptide/KD(IIaR) of the altered polypeptide |
| --- | --- |
| B1 | 22.3 fold |
| B2 | 28.3 fold |
| B3 | 10.1 fold |
| B4 | 21.7 fold |
| B5 | 9.2 fold |
| B6 | 25.7 fold |
| B8 | 6.6 fold |
| B9 | 12.9 fold |
| B10 | 14.8 fold |
| B11 | 6.3 fold |
| B12 | 9.3 fold |
| B13 | 19.4 fold |
| B14 | 2.3 fold |
| B15 | 13.9 fold |

molecular target: T4, FcγRIIb extracellular domain with …; assay: SPR (Biacore)

| Binder | binding relative to IL6R-B3/IL6R-L | binding result |
| --- | --- | --- |
| B18 | ≥ 100 times |  |
| B19 |  | binds |
| B20 |  | binds |
| B21 |  | binds |
| B22 |  | binds |
